{"source": "paper PMC6402988", "target": "ADI-15946 (human)", "experiment": "BLI", "data": [{"substance": "EBOV GP cleaved (EBOV GPCL) (from UniProt Q05320 33-650) (domain or fragment)", "values": [{"measurement": "Kd", "result": "< 1", "unit": "pM"}, {"measurement": "koff", "result": "< 1e-07", "unit": "s⁻¹"}]}]}
